Numbering of substitutions follows the chain as printed.
B1: anti-SARS-CoV-2 antibody 1037 (antibody, V domains shown)
VH: QITLKESGPTLVKPTQTLTLTCTFSGFSLSTSGVGVGWIRQPPGKALEWLALIYWDDDKRYSPSLKSRLTITKDTSKNQVVLTMTNMDPVDTATYYCAHHTITRINDYWGQGTLVTVSS
VL: QSALTQPASVSGSPGQSITISCTATSSDVGAYNYVSWYQQHPGKAPKLMIYDVSKRPSGVSNRFSGSKSGNTASLTISGLQAEDEADYYCSSYTSSSTVFGGGTKLTVL
B2: anti-SARS-CoV-2 antibody 989 (antibody, V domains shown)
VH: QVQLQESGPGLVKPSQTLSLTCTVSGGSISSGSYYWSWIRQPAGKGLEWIGRIYTSGSTNYNPSLKSRVTMSVDTSKNHFSLKLRSVTAADTAVYYCARGIAVAGDDDYYYYYGLDVWGQGTTVTVSS
VL: SYELTQPPSVSVSPGQTARITCSGDALPKQYAYWYQQKPGQAPVMVINKDSERPSGIPERFSGSSSGTTVTLTISGVQAEDEADYYCHSADSSGTYWVFGGGTKLTVL
B3: anti-SARS-CoV-2 antibody 1000 (antibody, V domains shown)
VH: EVQLVESGGGLVQPGRSLRLSCAASGFTFDDYAMHWVRQAPGEGLEWVSGISWNSGSIGYADSVKGRFTISRDNAKNSLYLQMNSLRAEDTALYYCAKDTRFSFGTIAAAVSGYGMDVWGQGTTVTVSS
VL: QSALTQPASVSGSPGQSITISCTGTSSDVGIFNLVSWYQQHPGKAPKLMIYEVTKRPSGVSNRFSGSKSGNTASLTISGLQAEDEADYYCCSYAGSYVFGTGTKVTVL
B4: antibody 439 (antibody, V domains shown)
VH: QVQLVESGGGVVQPGRSLRLSCAASGFTFSSYAMHWVRQAPGKGLEWVAVISYDGSNKYYADSVKGRFTISRDNSKNTLYLQMNSLRAEDTAVYYCARPPRGGSYYPFDPWGQGTLVTVSS
VL: not shown
B5: antibody 569 (antibody, V domains shown)
VH: B4 VH with P99A, P100S, R101S, S104Y, Y105Q, Y106G
VL: EIVLTQSPATLSLSPGERATLSCRASQSVSSYLAWYQQKPGQAPRLLIYDASNRATGIPARFSGSGSGTDFTLTISSLEPEDFAVYYCQQRSSPFGPGTKVDIK
B6: antibody 576 (antibody, V domains shown)
VH: B4 VH with R98K, P99A, P100G, R101G, G103S, S104Y, Y106R, P107G, P110Y
VL: DIQLTQSPSFLSASVGDRVTITCRASQGISSYLAWYQQKPGKAPKLLIYAASTLQSGVPSRFSGSGSGTEFTLTISSLQPEDFATYYCQQLNSYPTFGPGTKVDIK
B7: antibody 446 (antibody, V domains shown)
VH: B4 VH with P100N, R101S, G103S, S104Y, Y105F, Y106G, P107Y, D109Q, P110H
VL: QSVLTQPPSVSGAPGQRVTISCTGSSSNIGAGYDVHWYQQLPGTAPKLLIYGNSNRPSGVPDRFSGSKSGTSASLAITGLQAEDEADYYCQSYDSSLSGFYVFGTGTKVTVL
B8: anti-SARS-CoV-2 antibody 1075 (antibody, V domains shown)
VH: QVQLVQSGAEVKKPGASVKVSCKVSGYTLIELSMHWVRQAPGKGLEWMGGFDPEDGETIYAQKFQGRVTMTEDTSTDTAYMELSSLRSEDTAVYYCATEWAYYGSGSYLGYWGQGTLVTVSS
VL: EIVMTQSPATLSVSPGERATLSCRASQSVSSNLAWFQQKPGQAPRLLIYGASTRVTVIPARFSGSGSGTEFTLTISSLQSEDFAVYYCQQYNNWPRTFGQGTKVEIK
B9: antibody 566 (antibody, V domains shown)
VH: QVQLVQSGAEVKKPGASVKVSCKASGYTFTSYAMHWVRQAPGQRLEWMGWINAGNGNTKYSQKFQGRVTITRDTSASTAYMELSSLRSEDTAVYYCARDLGVAVTLHPADFDYWGQGTLVTVSS
VL: QSVLTQPPSVSGAPGQRVTISCTGSSSNIGAGYDVHWYQQLPGTAPKLLIYDNSNRPSGVPDRFSGSKSGTSASLAITGLQAEDEADYYCQSYDSSLSAVVFGGGTKLTVL
B10: antibody 564 (antibody, V domains shown)
VH: QVHLVESGGGVVQPGKSLRLSCAASGFIFSSFGMHWVRQPPGKGLEWLAVVSYDGSVTKYSDSFEGRFTISRDNSKNTLYLQMDSLRPEDTAVYYCAKGQGTNLLHYWGQGILVTVSS
VL: DVVLSQSPLSLPVTLGQPASISCRSSESLVYTDGDTYLHWFHQRPGQSPRRLIFKVSHRESGVPDRISGSGSGTDFTLKISRVEAEDVGVYYCMQGTHWPFTFGPGTKVDIK
B11: anti-SARS-CoV-2 antibody 1012 (antibody, V domains shown)
VH: EVQVVESGGGLVQPGGSRRLSCTASGFTLRNYWMSWVRQAPGKGLEWVANIKQDGSEKYYVDSVKGRFTISRDNAKNSLYLQMDSLRAEDTAVYYCARGGRYCPGGSCPRWGRGTLVTVSS
VL: DIQMTQSPSSLSASVGDRVTITCQASQDISNFLNWYQLKPGEAPTLLIFDASKLETGVPSRFSGTGFGTDFTFTISSLQPEDTATYYCQQYDDLTSITLGQGTRLEIK
B12: anti-SARS-CoV-2 antibody 966 (antibody, V domains shown)
VH: QVQLVESGGGVVQPGRSLRLSCAASEFTFSSYGMHWVRQAPGKGLEWVAVISHDGSNEYYADSVKGRFTISRDNSKNTLYLQMNSLRAEDTAVYYCAKWRGPHRGYYDRSGYYLGSSRDDYWGQGTLVTVSS
VL: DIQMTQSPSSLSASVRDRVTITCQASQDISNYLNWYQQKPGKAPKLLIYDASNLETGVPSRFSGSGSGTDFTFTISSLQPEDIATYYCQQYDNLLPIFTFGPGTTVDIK
B13: anti-SARS-CoV-2 antibody 1015 (antibody, V domains shown)
VH: EVQLVESGGGLVQPGGSLRLSCAASGFTFSSYWMHWVRQAPGKGLVWVSHINSDGSSTSYADSVKGRFTISRDNAKNTLYLQMNSLRAEDTAVYYCARGLRYFDLDVWGQGTTVTVSS
VL: QSVLTQPPSVSEAPRQRVTISCSGSSSNIGNNAVNWYQQLPGKAPKLLIFYDDLLPSGVSDRFSGSKSGTSASLAISGLQSEDEADYYCAAWDDSLNGGVFGGGTKLTVL
B14: anti-SARS-CoV-2 antibody 1027 (antibody, V domains shown)
VH: EVQLVESGGGLVQPGGSLRLSCAASGFTVSSNYMSWVRQAPGKGLEWVSIIYSGGSTFYADSVKGRFTISRDSSKNTLYLQMSSLRAEDTAVYYCARDLDYYGMDVWGQGTTVTVSS
VL: DIQLTQSPSFLSAPVGDRVTITCRASQGISSYLAWYQQKPGKAPKLLIYGASTLQSGVPSRFSGSGSGTEFTLTISSLQPEDFATYYCQQLNSYQRFTFGPGTKVEIK
B15: anti-SARS-CoV-2 antibody 1193 (antibody, V domains shown)
VH: EVQLVESGGGLVQPGGSLRLSCAASGFTFSSYYMNWVRQAPGKGLEWVSYISSGSSIIYYADSVKGRFTISRDNAKNSLYLQMNSLRDEDTAVYYCARDSPLRYFDWQLGGGFDYWGQGTLVTVSS
VL: QSALTQPASVSGSPGQSITISCTGTSSDVGGYNYVSWYQQHPGKAPKLMIYDVSNRPSGVSNRFSGSKSGNTASLTISGLQAEDEADYYCSSYTSSSLWVFGGGTKLTVL
B16: anti-SARS-CoV-2 antibody 1081 (antibody, V domains shown)
VH: EVQLVQSGAEVKKPGESLKISCKRSGYSFTTYWIGWVRQMPGKGLEWMGSIYPGDSDTRYSPSFQGQVTISADKSISTAYLQWSSLKASDTAMYYCASQEVPGYYYYMDVWGKGTTVTVSS
VL: DIQMTQSPSSLSASVGDRVTITCRASQSISSYLHWYQQKPGKAPKLLIYAASSLQSGVPSRFSGSGSGTDFTLTISSLQPEDFATYYCQQTYSTHTWTFGQGTKVEIK
B17: anti-SARS-CoV-2 antibody 1091 (antibody, V domains shown)
VH: EVQLVESGGGLVKPGGSLRLSCAASGFPFITYSMNWVRQAPGKGLEWVSSISRNSDYIYYADSVRGRVTISRDNAENSLYLQMHSLRAEDTAVYYCARDVVRSGNYYIPRHGMDVWGRGTTVTVSS
VL: QSVLTQPPSASGTPGQRVTISCSGTSSNIGSNTVNWYQQLPETAPKLLIYGTDQRPSGVPDRFSGSKSGTSASLAISRLQSEDEADYYCATRDDSLSGPVFGGGTQLTVL
B18: antibody 571 (antibody, V domains shown)
VH: EVQLVESGGGLVQPGGSLRLSCAASGFTFSTYWMTWVRQAPGKGLEWVANIKHDGSGKYHVDSVKGRFTISRDNAKNSLYLQMNSLRAEDTAVYYCTRDEGGWYDYWGQGTLVTVSS
VL: QSALTQPASVSGSPGQSITISCTGTSSDVGSYNPVSWYQQHPGKAPKVMIYEGSKRPSGVSNRFSGSKSGNTASLTISGLQAEDEADYYCCSYARSSTFVVFGGGTKLTVL

How the values were obtained:
[1] = biological target: SARS-CoV-2 full-length spike protein on pseudotyped lentivirus (SARS-CoV-2, UniProt P0DTC2 14-1273); experiment: cell-based or functional assay
[2] = biological target: spike protein of SARS-CoV-2 clinical isolate USA/WA/1/2020 (live virus) (SARS-CoV-2, UniProt P0DTC2 14-1273); experiment: cell-based or functional assay
[3] = biological target: SARS-CoV-2 spike protein (wild type), spike protein trimer (SARS-CoV-2, UniProt P0DTC2 14-1208)
[4] = biological target: SARS-CoV-2 full length spike protein (wild type), expressed on the surface of transiently transfected CHO … (SARS-CoV-2, UniProt P0DTC2 14-1273)
[5] = biological target: SARS-CoV spike protein (full-length trimeric, conjugated to optically encoded beads) (SARS-CoV, UniProt P59594 14-1190)

Binder	Pseudo-neutralization IC50 [1] [mg/L]	Live Virus Neutralization IC50 [2] [mg/L]	Kd [3] [nM]	median fluorescence intensity, fold over isotype control [4] [fold over isotype]	fold over isotype control (median fluorescence intensity) [5] [fold over isotype]
B1	0.025	0.009	0.126	–	–
B2	0.19	1.5	0.104	–	–
B3	0.006	0.013	0.092	–	–
B4	–	–	–	8.2	–
B5	–	–	–	–	3.31
B6	–	–	–	–	6.87
B7	–	–	–	7.99	–
B8	0.039	0.011	0.093	–	–
B9	–	–	–	–	0.97
B10	–	–	–	–	37.3
B11	0.006	0.028	0.139	–	–
B12	0.021	> 10	1.8	–	–
B13	0.011	0.032	0.096	–	–
B14	0.01	0.005	0.205	–	–
B15	0.69	0.31	0.178	–	–
B16	0.012	4.6	0.093	–	–
B17	0.016	0.074	0.054	–	–
B18	–	–	–	–	1.28
